{"source": "paper PMC6540150", "origin": "cited, not measured here", "molecular_target": "SOUL BH3 (Homo sapiens) (UniProt Q9Y5Z4)"}
{"substance": "Bcl-xL (from UniProt Q07817)", "values": [{"measurement": "Kd", "value": 40, "unit": "µM"}]}
